The results in this text go back to article PMC8233230, “RAD51AP1 mediates RAD51 activity through nucleosome interaction” (The Journal of Biological Chemistry, 2021).

Data set [1] addresses mononucleosome core particle (NCP) (human) (UniProt P04908). Nature of the data set: native gel or EMSA; apparent; full-length RAD51AP1 with the NCP, free NCP band quantified after ethidium bromide staining, corrected for the diminished staining of NCP-bound DNA.
For data set [2], the system named is RAD51AP1 full-length, His6/FLAG (human). Nature of the data set: EMSA. The settings on record: apparent, EMSA: 50 mM Tris-HCl pH 7.5, 100 mM NaCl, 4 C, 30 min, native 5% PAGE in 0.2x TBE. (Mobility shift assays separate free from complexed probe on a gel.)
Data set [3] deals with T1, purified human RAD51 (human, UniProt Q06609 1-339).
T1 construct: DNA repair protein RAD51 homolog 1 (RAD51 recombinase), human; also called RAD51 recombinase; source: purified
T1 sequence (looked up): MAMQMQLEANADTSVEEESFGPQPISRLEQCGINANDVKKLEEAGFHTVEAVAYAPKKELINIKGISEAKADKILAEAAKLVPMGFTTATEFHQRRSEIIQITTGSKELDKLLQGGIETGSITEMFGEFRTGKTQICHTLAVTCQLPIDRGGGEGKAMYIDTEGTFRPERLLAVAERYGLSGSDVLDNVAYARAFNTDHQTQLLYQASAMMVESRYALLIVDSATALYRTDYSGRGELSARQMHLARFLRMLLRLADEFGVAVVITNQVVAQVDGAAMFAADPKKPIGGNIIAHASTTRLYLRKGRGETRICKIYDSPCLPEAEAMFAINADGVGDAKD
Nature of the data set: far-Western, overlay or dot blot; RAD51AP1/NCP complex separated by EMSA (native gel), transferred to PVDF, membrane incubated with 3 ug/ml purified RAD51 in buffer I at 4 C overnight, bound RAD51 detected with anti-RAD51. The settings on record: both partners purified.

Consider “full-length MBP-/His6-RAD51AP1 (from UniProt Q96B01-2 1-335) (natural protein)”, for which the Kd in data set [1] came to 21 nM. On to 147 bp dsDNA (Widom 601), for which the Kd in data set [2] (0.1 uM DNA, EtBr stain) stood at 12 nM.

In the case of NCP (Widom 601, 147 bp), in data set [2] (corrected for EtBr staining (111/5.2; uncorrected 111 nM), 0.2 uM NCP), the Kd was 21 nM.

B1: His6-/FLAG-tagged human RAD51AP1 (natural protein, UniProt Q96B01-2 1-335, looked up)
chain: MVRPVRHKKPVNYSQFDHSDSDDDFVSATVPLNKKSRTAPKELKQDKPKPNLNNLRKEEIPVQEKTPKKRMALDDKLYQRDLEVALALSVKELPTVTTNVQNSQDKSIEKHGSSKIETMNKSPHISNCSVASDYLDLDKITVEDDVGGVQGKRKAASKAAAQQRKILLEGSDGDSANDTEPDFAPGEDSEDDSDFCESEDNDEDFSMRKSKVKEIKKKEVKVKSPVEKKEKKSKSKCNALVTSVDSAPAAVKSESQSLPKKVSLSSDTTRKPLEIRSPSAESKKPKWVPPAASGGSRSSSSPLVVVSVKSPNQSLRLGLSRLARVKPLHPNATST
notes: numbers count on: RAD51AP1 isoform 2; also called His6/FLAG-tagged RAD51AP1; full-length FLAG-tagged RAD51AP1; source: expressed and purified
For the molecule B1, in data set [3], the binding result is recorded as “binds”.
